Assay results published in patent US8444990.

How the values were obtained:
[1] = biological target: soluble Her2 (Her2 extracellular ligand binding domain, residues 1-653, fused to the FLAG sequence) (UniProt P04626); assay: EIA, plate coated with sHer2, control IgG at 10 ng/ml, absorbance at 405 nm
[2] = biological target: soluble Her3 (Her3 extracellular domain) (UniProt P21860); assay: EIA, plate coated with sHer3, control IgG at 100 µg/ml, absorbance at 405 nm
[3] = biological target: soluble Her4 (Her4 receptor extracellular domain, residues 1 to 639) (human) (UniProt Q15303); assay: EIA, plate coated with sHer4, control IgG at 100 µg/ml, absorbance at 405 nm
UniProt Q15303, sequence (Q15303 other isoform, or with tags, fused parts or gaps limits assumed, form in doubt): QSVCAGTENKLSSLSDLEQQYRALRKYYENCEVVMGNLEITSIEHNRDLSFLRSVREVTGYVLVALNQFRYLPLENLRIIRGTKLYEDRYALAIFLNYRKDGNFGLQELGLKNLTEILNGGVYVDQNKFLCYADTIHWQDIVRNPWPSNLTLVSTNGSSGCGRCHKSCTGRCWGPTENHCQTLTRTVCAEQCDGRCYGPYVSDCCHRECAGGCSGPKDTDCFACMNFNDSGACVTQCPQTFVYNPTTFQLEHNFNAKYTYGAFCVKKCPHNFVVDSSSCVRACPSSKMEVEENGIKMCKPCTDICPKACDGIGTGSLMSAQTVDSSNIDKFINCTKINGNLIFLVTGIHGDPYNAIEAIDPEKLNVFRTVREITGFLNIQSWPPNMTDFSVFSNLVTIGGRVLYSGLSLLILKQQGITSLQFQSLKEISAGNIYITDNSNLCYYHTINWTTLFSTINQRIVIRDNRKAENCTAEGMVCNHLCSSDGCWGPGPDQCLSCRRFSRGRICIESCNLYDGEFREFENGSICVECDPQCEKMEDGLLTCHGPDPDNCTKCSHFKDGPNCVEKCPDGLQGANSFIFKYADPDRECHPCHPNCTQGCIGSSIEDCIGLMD

UniProt P21860, sequence (P21860 20-643 limits assumed): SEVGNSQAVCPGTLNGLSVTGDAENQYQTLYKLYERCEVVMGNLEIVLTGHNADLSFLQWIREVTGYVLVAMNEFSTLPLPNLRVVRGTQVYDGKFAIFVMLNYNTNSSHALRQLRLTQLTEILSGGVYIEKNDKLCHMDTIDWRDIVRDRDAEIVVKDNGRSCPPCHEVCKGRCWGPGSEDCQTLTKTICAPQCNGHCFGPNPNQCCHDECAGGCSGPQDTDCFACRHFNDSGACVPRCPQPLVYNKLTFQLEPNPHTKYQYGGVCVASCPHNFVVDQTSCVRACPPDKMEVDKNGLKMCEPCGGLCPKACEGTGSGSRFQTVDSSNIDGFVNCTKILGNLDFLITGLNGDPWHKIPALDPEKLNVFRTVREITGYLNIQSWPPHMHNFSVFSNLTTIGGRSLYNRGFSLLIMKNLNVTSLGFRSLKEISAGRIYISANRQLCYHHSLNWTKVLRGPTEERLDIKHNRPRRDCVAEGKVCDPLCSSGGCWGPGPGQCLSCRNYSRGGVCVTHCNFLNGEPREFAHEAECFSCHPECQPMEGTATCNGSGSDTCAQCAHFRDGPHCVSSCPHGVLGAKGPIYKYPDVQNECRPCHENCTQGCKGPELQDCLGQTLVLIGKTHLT

## Mouse IgG (antibody)
[1]
  O.D. of 10 ng/ml: 0.09 O.D.
[2]
  O.D. of 100 ug/ml: 1.2 O.D.
[3]
  O.D. of 100 ug/ml: 0.9 O.D.
